The assay addresses catalase (human) (UniProt P04040).
UniProt P04040, sequence (P04040 5-501): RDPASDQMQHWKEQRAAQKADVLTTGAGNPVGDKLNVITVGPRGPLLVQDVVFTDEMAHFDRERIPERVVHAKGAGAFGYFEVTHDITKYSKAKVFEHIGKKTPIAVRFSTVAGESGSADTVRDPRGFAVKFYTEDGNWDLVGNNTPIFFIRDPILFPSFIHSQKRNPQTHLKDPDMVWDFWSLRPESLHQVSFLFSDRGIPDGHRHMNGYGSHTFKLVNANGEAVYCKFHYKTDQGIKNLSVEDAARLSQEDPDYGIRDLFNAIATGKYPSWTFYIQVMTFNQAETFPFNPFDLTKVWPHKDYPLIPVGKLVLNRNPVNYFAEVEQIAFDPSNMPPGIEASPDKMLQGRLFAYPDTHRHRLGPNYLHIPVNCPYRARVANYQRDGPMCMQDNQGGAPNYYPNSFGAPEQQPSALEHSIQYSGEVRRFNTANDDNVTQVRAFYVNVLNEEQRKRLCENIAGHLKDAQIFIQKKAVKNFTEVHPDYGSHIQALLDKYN

In the case of “Aβ42 E22K (Italian type mutation, glutamic acid 22-to-lysine) (peptide)”, the H2O2 level in the blood of healthy controls after a 2 h incubation with E22K (H2O2 kit) was determined as 86.5.

The record behind these values is paper PMC7775154.
